The labels stand for the following.
B1: murine RANKL heterodimeric variant mD1 (mouse Dimer 1) (ligand)
chain 1: EAQPFAHLTINAASIPSGSHKVTLSSWYHDRGWADISNMTLSNGKLRVNQDGFYYLYANISFRHHETSGSVPTDYLQLMVYVVKTSIKIPSSHNLMKGGSTKNWSGNSEFHYYSINVGGFFKLRAGEEISIQVSNPSLLDPDQDATYFGAFKVQDID
chain 2: EAQPFAHLTINAASIPSGSHKVTLSSWYHDRGWAKISNMTLSNGKLRVNQDGYYYLYANICFRHHETSGSVPTDYLQLMVYVVKTSIKIPSSHNLMDGGSTKNWSGNSEFHFYSINVGGYFKLRAGEEISIQVSNPSLLDPDQDATYFGAFKVQDID
notes: range 160-316; Heterodimer of monomer A (His-tagged) and monomer B, co-expressed in E. coli; also called RANKL dimer 1; RANK-L Dimer 1; not shown: hexahistidine-tag fused to monomer A
B2: murine RANKL heterodimeric variant mD2 (mouse Dimer 2) (ligand)
chain 1: EAQPFAHLVINAASIPSGSHKVTLSSWYHDRGWAKISNMTLSNGKLRVNQDGFYYLYANISFRHHETSGKVPTDYLQLMVYVVKTSIKIPSSHNLMKGGSTKNWSGNSEFHYYSINVGGFFKLRAGEEISIQVSNPSLLDPDQDATYFGAFKVQDID
chain 2: EAQPFAHLVINAASIPSGSHKVTLSSWYHDRGWAKISNMTLSNGKLRVNQDGYYYLYANICFRHHETSGKVPTDYLQLMVYVVKTSIKIPSSHNLMDGGSTKNWSGNSEFHFYSINVGGYFKLRAGEEISIQVSNPSLLDPDQDATYFGAFKVQDID
notes: range 160-316; Heterodimer of monomer A (His-tagged) and monomer B, co-expressed in E. coli; also called RANKL dimer 2; dRANKL D2; not shown: hexahistidine-tag fused to monomer A
B3: human RANK-Fc (Fc fusion, UniProt Q9Y6Q6 30-212, looked up)
chain: IAPPCTSEKHYEHLGRCCNKCEPGKYMSSKCTTTSDSVCLPCGPDEYLDSWNEEDKCLLHKVCDTGKALVAVVAGNSTTPRRCACTAGYHWSQDCECCRRNTECAPGLGAQHPLQLNKDTVCKPCLAGYFSDAFSSTDKCRPWTNCTFLGKRVEHHGTEKSDAVCSSSLPARKPPNEPHVYLP
notes: also called hRANK-Fc; hRANK-FC; not shown: Fc part of the bought fusion; not described

The target in assay [1] is B3. Briefly: SPR on hRANK-Fc, 37 C. On the procedure: (§1) A Biacore experiment was performed to determine the kinetics of binding of the dimeric variants. hRANK-FC (Sigma) was captured in flow cell 2 at a level of 40 RU by a 60 s injection pulse of a 0.7 ug/ml hRANK-FC solution at a flow rate of 50 uL/min. Flow cell 1 served as reference cell. Subsequently, serial dilutions ranging from 562 nM to 100 pM of murine RANKL wt (R&D systems), or the purified RANKL dimers mD1 and mD2 were injected over both flow cells at 50 uL/min and 37° C. Binding was measured in real time. After each cycle the protein A surface was regenerated with a 30 s pulse of 10 mM Glycine pH 1.5. Kd values were calculated by fitting the data to a langmuir 1:1 binding model using the BIAevaluation software as described before (30). (Table 6 and FIG. 6).
(§2) Kinetic binding parameters were measured in real time using SPR. RANKL dimer binding curves were recorded using concentrations ranging from 100 pM to 562 nM dimer 1 (mD1) or dimer 2 (mD2), trimeric murine wild-type RANKL was used as a control. Measurements were performed at 37° C. The dissociation constants (KD) were determined by fitting the data to a Langmuir 1:1 interaction model. […] The binding off-rate constant (koff) of wild-type murine RANKL was ˜2 to 6 fold slower than for dimer 1 and dimer 2.

The target in assay [2] is T1, murine RANK-Fc (mouse, UniProt O35305 31-214).
T1 construct: also called mRANK-Fc; mRANK-FC; not shown: Fc part of the bought fusion; not described
T1 sequence (looked up): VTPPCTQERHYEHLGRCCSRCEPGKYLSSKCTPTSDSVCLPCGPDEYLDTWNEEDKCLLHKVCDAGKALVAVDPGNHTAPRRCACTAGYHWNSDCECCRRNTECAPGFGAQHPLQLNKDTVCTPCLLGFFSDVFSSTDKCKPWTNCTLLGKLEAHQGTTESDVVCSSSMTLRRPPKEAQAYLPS
Put plainly: competitive ELISA on RANK-Fc coated wells, competitor flag-mRANKL (0-53 nM), anti-flag detection, global four parameter fit. On the procedure: The ability of dimer 1 and dimer 2 to compete with wild-type murine RANKL for binding to mRANK was investigated using a competitive ELISA. […] After washing off unbound RANKL, mRANK bound flag-mRANKL was detected by an anti-flag antibody. A RANKL dimer concentration dependant decrease in mRANK binding and right shift in the EC₅₀ of flag-mRANKL was observed (FIGS. 7 and 18B), indicating a competitive inhibition based mechanism. IC₅₀ values for dimer 1 and dimer 2 were calculated to be 4 nM by a global fit of the individual dose response curves using a four parameter logistic model.
Background: In an ELISA, binding on a coated surface is turned into a signal by an enzyme label.

In assay [3] the target is T1, murine RANK-Fc. Briefly: competitive ELISA on mRANK-Fc coated wells, competitor 2 nM flag-mRANKL WT, anti-flag detection. As for the experimental part:
The ability of mD1 and mD2 to compete with mRANKL WT for binding to mRANK-Fc was investigated using a competitive ELISA. Serial dilutions of mD1 or mD2 (0-400 nM) and a fixed concentration (2 nM) of flag-mRANKL WT were added to mRANK-Fc coated wells. A dose-dependent decrease of flag-mRANKL WT binding was observed upon increasing concentrations of mD1 and mD2 (FIG. 18A).

Assay [4] has as its target B1. Put plainly: SPR (Biacore), hRANK-Fc captured on protein A at 40 RU, 37 C, 1:1 Langmuir fit. On the procedure: as §1, §2
A general note: SPR reads the build-up and loss of mass on a sensor chip optically.

Assay [5] deals with B2. The assay is described as above. On the procedure: as §1, §2
Assay [6] deals with B1. Put plainly: SPR single cycle kinetics, hRANK-Fc captured at 20-40 RU, 1:1 fit. As for the experimental part:
(§3) Considering the high similarity between human RANKL and murine RANKL (>88%) the murine dimers were also tested for hRANK binding. Binding to hRANK-Fc and mRANK-Fc (both from R&D Systems) was recorded for five consecutive concentrations of murine flag RANKL WT, D1 (mD1) or D2 (mD2) (˜0.3-15 nM) using SPR with a single cycle kinetics based approach. The capture level of mRANK-Fc and hRANK-Fc was low (20-40 RU) in order to ensure 1:1 binding. Both WT and the D1 and D2 dimeric variants bound with high affinity towards the mRANK receptor and to the human RANK receptor (FIG. 16: Table 8).

Assay [7] concerns the target B2. The description is as above. As for the experimental part:
as §3

Assay [8] concerns the target B3. Put plainly: SPR (Biacore), hRANK-Fc captured on protein A at 40 RU, 37 C, 1:1 Langmuir fit. On the procedure:
as §1, §2

In assay [9] the target is T1, murine RANK-Fc. Put plainly: ELISA, immobilized mRANK-Fc, % binding normalised to the highest concentration.

A word on the IC50: it is the concentration that inhibits the measured activity by half. As usually defined, the Kd is the constant that tells how readily two partners part at equilibrium. Read a low Kd as a tighter complex. By koff is commonly meant the first-order rate constant of dissociation. A low value points to a long-lived complex. By kon is commonly meant the second-order rate constant of association. The low end stands for slower complex formation, the high end for faster complex formation. The EC50 (read off the curve) is the midpoint of the concentration-response curve. Read a low EC50 (read off the curve) as greater potency.

For the molecule B1, in assay [1], the “fold faster kon than wild-type murine RANKL” value is ~5 fold. Also, the values for the 50% inhibitory concentration (IC50) in assay [2] and in assay [3] were 4 nM and 31 nM, respectively.

Turning to B2, the “fold faster kon than wild-type murine RANKL” value in [1] was ~10 fold. In addition, the concentration for half-maximal inhibition (IC50) in assay [2] came out at 4 nM; in assay [3], 28 nM.

In [4], B3 came in with a Ka of 2.33e+10 M⁻¹, a dissociation constant Kd of 0.0446 nM, an off-rate (koff) of 0.000197 s⁻¹ and a kon of 4.52e+06 M⁻¹ s⁻¹. Also, in assay [5], the Ka was determined as 1.8e+10 M⁻¹, the Kd was 0.0619 nM, the koff came out at 0.000554 s⁻¹ and the kon stood at 8.55e+06 M⁻¹ s⁻¹. Besides, in assay [6], the Kd is 0.129 nM, the off-rate constant (koff) was 0.00108 s⁻¹ and the association rate constant (kon) was determined as 8.8e+06 M⁻¹ s⁻¹. In assay [7], the Kd turned out to be 0.0259 nM, the koff is 0.000173 s⁻¹ and the kon stood at 6.69e+06 M⁻¹ s⁻¹.

B4: trimeric murine wild-type RANKL (R&D systems) (ligand, mouse, UniProt O35235 158-316, looked up)
chain: KPEAQPFAHLTINAASIPSGSHKVTLSSWYHDRGWAKISNMTLSNGKLRVNQDGFYYLYANICFRHHETSGSVPTDYLQLMVYVVKTSIKIPSSHNLMKGGSTKNWSGNSEFHFYSINVGGFFKLRAGEEISIQVSNPSLLDPDQDATYFGAFKVQDID
notes: Bought soluble trimeric protein; also called murine RANKL wt; mRANKL WT
Turning to B4, in [8], the Ka was found to be 9.23e+09 M⁻¹, binding was put at a Kd of 0.11 nM, the koff turned out to be 8.97e-05 s⁻¹ and the on-rate (kon) is 827000 M⁻¹ s⁻¹. The half-maximal effective concentration (EC50 (read off the curve)) in assay [9] was ~0.1 nM.

For the origin of these results see patent US20140096274A1 (published 2014).
